Laboratory results reported in article PMC5389796.

What was measured:
[1] = biological target: TALK-1 T3 A277E (rs1535500)-FLAG (human) (UniProt Q96T55)
[2] = biological target: TALK-1 T3-FLAG (human) (UniProt Q96T55)
[3] = biological target: TALK-1 T3-FLAG (human) (UniProt Q96T55); remark: listed apart in the source

whole-cell K2P currents of T-REx cells with induced TALK-1 T3 A277E, increase with iOPN compared to the PKM2 control, at -60, -30, 0, 30 and 60 mV [1]: 18.7 pA/pF | whole-cell K2P currents of T-REx cells with induced TALK-1 T3, increase with iOPN compared to the PKM2 control, at -60, -30, 0, 30 and 60 mV [2]: 19.6 pA/pF | change of resting membrane potential (ΔVm), TALK-1 T3 with iOPN against TALK-1 T3 with PKM2, perforated patch [3]: -7.7 mV | resting membrane potential (Vm) of T-REx cells expressing TALK-1 T3 with iOPN, perforated patch [3]: -80.2 mV
Substance: iOPN-V5 (from UniProt P10451-1 17-314) (natural protein)
